This assay addresses T1, sST2-Fc (mouse, UniProt P14719 27-332).
T1 construct: mouse ST2L (IL-33 receptor), amino acids 27-332, cloned into a pTT5 vector that contains the human IgG4 Fc domain; also called soluble ST2 Fc fusion
T1 sequence (looked up): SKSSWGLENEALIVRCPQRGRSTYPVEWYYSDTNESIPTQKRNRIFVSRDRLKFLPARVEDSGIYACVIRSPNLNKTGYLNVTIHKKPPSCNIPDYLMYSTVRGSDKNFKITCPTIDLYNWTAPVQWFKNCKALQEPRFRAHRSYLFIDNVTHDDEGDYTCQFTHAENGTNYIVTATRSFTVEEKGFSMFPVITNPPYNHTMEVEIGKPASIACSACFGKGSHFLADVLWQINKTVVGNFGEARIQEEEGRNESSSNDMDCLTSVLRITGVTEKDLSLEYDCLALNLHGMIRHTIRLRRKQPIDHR
The assay is described as follows: SPR; Biacore T200; antigen (mouse IL-33) immobilised on CM5 by amine coupling; proteins flowed in a 2-fold dilution series for 120 s, dissociation 480 s. The following applies: both partners purified. On the technique in general: SPR reads the build-up and loss of mass on a sensor chip optically.

B1: mouse IL-33 (ligand)
chain: SIQGTSLLTQSPASLSTYNDQSVSFVLENGCYVINVDDSGKDQEQDQVLLRYYESPCPASQSGDGVDGKKLMVNMSPIKDTDIWLHANDKDYSVELQRGDVSPPEQAFFVLHKKSSDFVSFECKNLPGTYIGVKDNQLALVEEKDESCNNIMFKLSKI
Consider B1, for which the Kd is 0.174 nM.

The term Kd denotes the equilibrium constant for the complex coming apart. Lower therefore signals tighter binding.

Values taken from paper PMC11117730, “A Novel Bifunctional Fusion Protein (Anti-IL-17A-sST2) Protects against Acute Liver Failure, Modulating the TLR4/MyD88 Pathway and NLRP3 Inflammasome Activation” (Biomedicines, 2024).
